Experimental findings from patent publication US20100081612A1 (GENERAL HOSPITAL, published 2010) are described below.

Like-named read-outs stand apart in the source and are kept apart here. Where no end group is shown, it is not given here.

Experiment [1] concerns the target PTHR-delNt (human) (UniProt Q03431). Nature of the experiment: competition binding, COS-7 membranes, 125I-[Aib1,3,M]PTH(1-15) tracer.
The target of a further experiment is T1, wild-type human PTHR (human, UniProt Q03431 27-593).
T1 construct: whole, on cells; also called PTHR-WT; intact PTHR
T1 sequence (looked up): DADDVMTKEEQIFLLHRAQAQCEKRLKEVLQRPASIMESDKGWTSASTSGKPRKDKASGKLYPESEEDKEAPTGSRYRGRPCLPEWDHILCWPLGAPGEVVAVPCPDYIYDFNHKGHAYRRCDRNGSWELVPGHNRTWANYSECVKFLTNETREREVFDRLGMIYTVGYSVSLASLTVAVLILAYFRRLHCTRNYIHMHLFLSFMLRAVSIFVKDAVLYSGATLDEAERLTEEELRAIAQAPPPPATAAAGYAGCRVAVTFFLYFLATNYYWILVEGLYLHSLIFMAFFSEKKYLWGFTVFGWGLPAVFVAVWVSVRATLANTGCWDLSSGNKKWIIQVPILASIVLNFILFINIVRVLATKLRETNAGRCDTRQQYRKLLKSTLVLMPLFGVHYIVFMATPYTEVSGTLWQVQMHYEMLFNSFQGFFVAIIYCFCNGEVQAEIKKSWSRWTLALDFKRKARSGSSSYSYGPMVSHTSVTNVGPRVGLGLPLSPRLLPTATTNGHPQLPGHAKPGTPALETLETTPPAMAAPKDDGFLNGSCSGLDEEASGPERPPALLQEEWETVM
Description: competition binding, HKRK-B7 cells, 125I-PTH(1-34) tracer. The procedure, abridged:
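Intact HKRK-B7 cells stably expressing hPTHR incubated 4 h at 15° C with ¹²⁵I-PTH(1-34) tracer and unlabeled peptide (3×10⁻⁹ to 1×10⁻⁵ M). Nonspecific binding defined with 1×10⁻⁶ M PTH(1-31)NH₂. Bound activity counted after lysis and expressed as % specific binding without competitor; values in nM, mean ± s.e.m.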

In experiment [2] the target is PTHR-delNt (human) (UniProt Q03431). Description: competition binding, COS-7 membranes, 125I-[Aib1,3,M]PTH(1-15) tracer. This is another data set of the same source.

With AVSEIQLMHNLGKHLNSMERVEWLRKKLQDV-NH2 [[Ala^1,Arg^19]hPTH(1-31)NH2 Arg^19→Glu], the fold reduction in binding affinity vs [Ala^1,Arg^19]PTH(1-31)NH2 with PTHR-delNt (human) [1] is 90 fold; in the experiment with PTHR-delNt (human) [2], 50 fold. Besides, the half-maximal inhibitory concentration (IC50) (commonly the concentration at which inhibition is half-maximal) worked out at 125 nM with wild-type human PTHR and 18.9 µM with PTHR-delNt (human) [2].
